Experimental data taken from the DeepSol protein solubility set.

Assay: soluble on expression in E. coli; label from the status in PepcDB or PDB records

| Sequence | soluble on expression in E. coli |
| --- | --- |
| MGSDKIHHHHHHMKNNLNNILEDSLNYKIGETLDELKSIKKLDEIFSKRKDQLYREKDEGKKVYGRFCVFVPTEIICAADAIPVGLCGGKESTIPSAEEDLPRNICPLIKSSYGFKKDKACPYFEASDVIVGETTCDGKKKMFEHMAELSEMYVMHLPHFKDERSYELWLKEVYDFKDYVEKFTGNKITEEKLKEAIDEENEERMLSHKLYELRSQIPTPITGKDALKIFQRSFLLDIKDRLAILKEVISELEERVKNGEGYTGKRILVAGCPMVAGNTKIVDIIEEVGGLVVGEETCTGTRKFDNLVNGYTIDDLAERYFKINCASAFKNDSRIERIKELVKEQNADGVVYYTLQYCHTFNVEGALIEKELKNLGIPIIRIETDYSESDKEQIKTRLEAFVEMI | not soluble |
| MKLNIRAQTAQNQHNNSPIVLVHGLFGSLDNLGVLARDLVNDHNIIQVDVRNHGLSPREPVMNYPAMAQDLVDTLDALQIDKATFIGHSMGGKAVMALTALAPDRIDKLVAIDIAPVDYHVRRHDEIFAAINAVSESDAQTRQQAAAIMRQHLNEEGVIQFLLKSFVDGEWRFNVPVLWDQYPHIVGWEKIPAWDHPALFIPGGNSPYVSEQYRDDLLAQFPQARAHVIAGAGHWVHAEKPDAVLRAIRRYLNDH | soluble |
| MAPRDIRPGAEYGDIIEEAIVTCKVFLIVFSETSQISRWVRSELNIGFSSNKPIIPFRIDPTDLKGSMKLMLNDKHWLNAYPNPEEKFSELAAVILDLLQHPAVDTISPPGFQPASNVASADGSNAGAQGLFGKLLNQLFVKRRVKVTSDHAAEIFLNGERKGKLDAYETGNYSVSEDFYQLEVYSCEYGKKVKCEYSGSFSNSSTVIISVDMATAEKQYLMKAKNITSGQINDLGIIFLDEGKFEDAQECFLKAASMGEAAAAYNLGMMYHFGKGVEIDYDVAREYYEEAVKSDYPLALNNLGSIYYNGHGVRKDIAKSFPYFCRAAERGVESAQFTVATMLFYGQGVAVDKAKAKKWFQKAAAQGCKDSQNYLNSWVDDLEHHHHHH | soluble |
| MGLFTTRQLLGYTEQKVKFNPLFLSLFFRRTVTFPTQEVMLDKITGKTPIAAYVSPVVGGKVLRNRGGETRVLRPGYVKPKHEVNYAQVVERLPGEDPARLNDPAYRRLRILTDNLKQEEKAIVQVEEMQAVSAVLNGKYTMQGEQFDTVEVDFGRSAGNNIIQATGKKWSEQDRETFDPTYDLDMYCDQASGLINIAVMDGKVWRLLNGFKLFREKLDTRRGSNSQLETAVKDLGAVVSFKGYYGDLAIVVAKTSYVADNGTEKRYLPEGTLVLGNTAAEGIRCYGAIQDSQALAEGIVAATRYPKHWLTVGDPANEYTMTQSAPLMVLPDPDEFVIVTVG | not soluble |
| PALVLEGDMTAPTLVIGWGSTFGSLKSAVQQCLEQGLPVAYLHLRHLNPLPDDLGSLLKKYDKVLVAELNSGQLCQLIRAVYLVDAQSISQCNGQPFSVNPLVSAIKAEANYEQQL | not soluble |
| MGSDKIHHHHHHSCTQDSDTFYPSSPEEEHPSVDESRMIPIQLSVDGVDQFYGGAVTRSGETVARLVQPLDSTYDTGYDVETTVESIPLENIVSTRANLGNVQFRVVAYRTDASSADHYAGTAVYKTNGSGVAAIVAKTATPVNSAGQWILGPGTYTFVCYSYGLNSAPAMLSGNWSATVSHNQDFMLCRKEEVVVAPDDRGEFTLGGISFTRQCALLQLAVTANDFTNNTVQQCAATVSNLNSNNITWNAGQTALSTGGTGGAVNFSWSSLNAATVNSNVYKVLPQSSRTLTIKLTTLRIGNIQYNNRVTVNASGRQFAAGGNYKITVKITGNGITVGGATWAKGNVYKSGSNFYFESSQSGYHSGTQGGSFFGWNTLSSTNNTYGGSSFSSDNDPCYQVAPRGTWCTPTANQLQNLGNSGYRSGYLDGKRGGYFGGNKVFLPAMGNRGKNNVNYWPETGYYRSSTGASGKRCYYLEFNQSYAVKNNYYWYWDGFPIRCVKR | not soluble |
| QAMLIGEIMDLNLKNFLEDREEIIRDAKRKDEKSFKDFKKIVEEIKERENKDKIVCDFTEYNPLHKGHKYALEKGKEHGIFISVLPGPLERSGRGIPYFLNRYIRAEMAIRAGADIVVEGPPMGIMGSGQYMRCLIKMFYSLGAEIIPRGYIPEKTMEKVIDCINKGYHIQVKPYKIICIETGEILGEKLNIDNYVIASMSQMIYKLNREGLKFNPKFVFVKRLEGISGTKIREAIFSGKFEDIKNMLPKTTLSILKELYDNGKLNELILKRFEDRILETANEYDLYEYLPSNVAEILEKKRPFNNIEEIKNSLPYGFSRHFRERILSKLEARIPNETLSKYINNYPAKIKILAVKL | soluble |
| MRPQNTNGDFYVDTTCIDCDTCRWMTPEVFHRVDEMSAVYHQPTNETERLAALQALLSCPTSSIGTVEKLEHHHHHH | not soluble |
| MNRMRRSTAFSEHVTFHTVMAKRGTGSKLDREVEIQFTNLQLIGTGSFGAVYKAVLRENDEPIAIKKIKVDDRFKSRELTIMHEMDHPNIIRLLYYYVMQQENCLNFVMEFMPKDLAYVHRQFAHNDKQMPAYSIKLYMFQLLRGIGFLHLHNIVHRDIKPKNLLVDESNGILKICDFGSAKRLEKNEPNITYICSRYYRAPELIFGSKNYDTSIDTWSVGTVVGELLHNSPIFLADSAVDILALQIKAFGTPSKEDMAKWNYEYVHIPYDTITGVGIQKFIGRKLSLSTLELLNSLMKMDPKLRIKPYEALTLPYFDDLRDPHYKLPSGAPIPPLFDWLEREYIANHEIIKDIFPRSEEGDKVECL | not soluble |
| MGSDKIHHHHHHVHPTLPHAGKNWPLSARDSPATAMAGKGINAVCLFRYQRRWHQSCFILEHAPGTRNPMTWTECLAVTAFGAFVIDRYDWTGTVKRSSNDEELLVHERLGVVSVQTSPLRRAKPALRHLRGLLIEYDCPVECIAVFAAPHCALDPTLPETTLQASELHHFMRTRFNRFRDSHRQYLDSERIAAYLQLHCTDWGENCV | not soluble |
| MMSASSPYPIGTPGQPWQASERQAWREQRHIQREYQQEVVPKILALNSLFDVSTYGALSYDPTRYPLYVVKSRHWNANKPTVLITGGVHGYETSGVHGALQFLATAAEPYLAHFNLLAAPCVSPWGYETINRWNPNAIDPNRSFVQDSPAEEAALLMAMVAEHGPILLHIDLHETTDTDESEFRPALAARDGKAYLEGSIPDGFYTVGDTENPQLAFQQAVIDSVRRVTHIAPADENHEIIGSPVVAEGVILYPMRELGLCGGMTDCTYSTTTEVYPDSPKVTAQLCNDAQVAAIIGALDYVLANEQSLLGE | not soluble |
| MSLEDYILKVEELNYNYSDGTHALKGINMNIKRGEVTAILGGNGVGKSTLFQNFNGILKPSSGRILFDNKPIDYSRKGIMKLRESIGIVFQDPDNQLFSASVYQDVSFGAVNMKLPEDEIRKRVDNALKRTGIEHLKDKPTHCLSFGQKKRVAIAGVLVMEPKVLILDEPTAGLDPMGVSEIMKLLVEMQKELGITIIIATHDIDIVPLYCDNVFVMKEGRVILQGNPKEVFAEKEVIRKVNLRLPRIGHLMEILKEKDGFVFDELDLTIGQARKTINSWKNKIFNEGHHHHHH | soluble |
| GQKESQTGKGMKIVTSFYPIYAMVKEVSGDLNDVRMIQSSSGIHSFEPSANDIAAIYDADVFVYHSHTLESWAGSLDPNLKKSKVKVLEASEGMTLERVPGLEDVEAGDGVDEKTLYDPHTWLDPEKAGEEAQIIADKLSEVDSEHKETYQKNAQAFIKKAQELTKKFQPKFEKATQKTFVTQHTAFSYLAKRFGLNQLGIAGISPEQEPSPRQLTEIQEFVKTYKVKTIFTESNASSKVAETLVKSTGVGLKTLNPLESDPQNDKTYLENLEENMSILAEELK | soluble |
| EHEHNYHPNAVAAGLRAGRTRSIGLVIPDLENTSYTRIANYLERQARQRGYQLLIACSEDQPDNEMRCIEHLLQRQVDAIIVSTSLPPEHPFYQRWANDPFPIVALDRALDREHFTSVVGADQDDAEMLAEELRKFPAETVLYLGALPELSVSFLREQGFRTAWKDDPREVHFLYANSYEREAAAQLFEKWLETHPMPQALFTTSFALLQGVMDVTLRRDGKLPSDLAIATFGDNELLDFLQCPVLAVAQRHRDVAERVLEIVLASLDEPRKPKPGLTRIKRNLYRRGVLSRS | soluble |
| GKSPEAECNKITEEPKCSEEKICSWHKEVKAGEKNCQFNSTKASKS | soluble |
| SAAQKINEGLEHLAKAEKYLKTGFLKWKPDYDSAASEYGKAAVAFKNAKQFEQAKDACLREAVAHENNRALFHAAKAYEQAGMMLKEMQKLPEAVQLIEKASMMYLENGTPDTAAMALERAGKLIENVDPEKAVQLYQQTANVFENDERLRQAVELLGKASRLLVRGRRFDEAALSIQKEKNIYKEIENYPTCYKKTIAQVLVHLHRNDYVAAERCVRESYSIPGFNGSEDCAALEQLLEGYDQQDQDQVSDVCNSPLFKYMDNDYAKLGLSLVVPGGGIKKKSPATPQAKPDGVTATAADEEEDEYSGGLC | soluble |
| MGSDKIHHHHHHMASIQNLYETVVGVLGDQASKVISALGEITVECLPEHYISVMTALRDHEELHFELLVDLCGVDYSTYKNEVWQGKRFAVVSQLLSVKNNQRIRVRVWVSDDDFPVVESVVDIYNSADWYEREAFDMYGIMFNNHPDLRRILTDYGFVGHPFRKDFPISGYVEMRYDEEQKRVIYQPVTIEPREITPRIVREENYGGQ | not soluble |
| MASSSLIMGNNMHVKYLAGIVGAALLMAGCSSSNELSAAGQSVRIVDEQPGAECQLIGTATGKQSNWLSGQHGEEGGSMRGAANDLRNQAAAMGGNVIYGISSPSQGMLSSFVPTDSQIIGQVYKCPNLEHHHHHH | not soluble |
| AIAREWKSQDAWKQHSLRLCFGVWPGTEFLHRPRAVHRRSGVVCSQMQTEDSHPETPQVPKESLQEEKDSSPATDASFIQSQDGKTVFLDRRTERRIQRGFVLTERGPRSIWKPAGTSSQRNERVPRRAAARGGAGPPDTTPQLATVRVLVLGANHVAQRLAELLSSHSRVCGCYFVSETTDEAAIESMKKYAYALPLRSALNDDEVVRVAEWVLADYVFLVPTGETHDDGVSLKDKERLERTLAQNRVTFMDENLTGLLLENPSLIDALFRARDSLEA | soluble |
| MGSDKIHHHHHHMIRLDNISKQNGHQILFIEASMGVQKGEKVGLVGPNGAGKTTLFRMITGQEQPDDGIVSIDAGMRIGYFSQDVGEMSGQSAVAAVMDGVGPVSALAAEMATLEAAMVDPDQADQLDAVMERYGEVLERFQELDGYALEARAREVLAGLSFSQERMDADVGLLSGGWKMRVALARILLMRPDGMLLDEPSNHLDLESLIWLESFLKNYDGALLMTSHDRAFMNRIIGKVIEIDAGSLITYSGDLDFYDQQRALSEAQRQAQYERQQAMLAKEIKFIEKFKARASHAAQVQSRVKKLDKIERVEAPRRRQTVQFEFQSPPRSGEDVISLRGVHKGYGERPIYQDLDFLVRRKERWAVLGANGAGKSTLLKLVAGDTKPDQGVVNIGASVKMGYFAQHSMDLLDGEETIFESLERSFPQAGQGALRTLAGCFGFSGDDVEKPCRVLSGGEKARLVMAKMLFDPPNLLVLDEPTNHLDMVTKEMLVASLADFEGTMLFVSHDRHFLAALSNRVLELTPEGIHQYGGGYTEYVARTGQEAPGLHPGG | not soluble |
